From patent US20260085129A1 (ECO ANIMAL HEALTH, published 2026)

Experiments:
[1] = molecular target: T1, porcine CD163, membrane-bound form on porcine pulmonary alveolar macrophage (pPAM) WT cells (porcine, UniProt Q2VL90 47-1115); experiment: dose-response FACS on pPAM WT cells, anti-FLAG-biotin and streptavidin R-PE detection
T1 construct: Native CD163 on primary cells; also called membrane CD163; cell-surface CD163
T1 sequence: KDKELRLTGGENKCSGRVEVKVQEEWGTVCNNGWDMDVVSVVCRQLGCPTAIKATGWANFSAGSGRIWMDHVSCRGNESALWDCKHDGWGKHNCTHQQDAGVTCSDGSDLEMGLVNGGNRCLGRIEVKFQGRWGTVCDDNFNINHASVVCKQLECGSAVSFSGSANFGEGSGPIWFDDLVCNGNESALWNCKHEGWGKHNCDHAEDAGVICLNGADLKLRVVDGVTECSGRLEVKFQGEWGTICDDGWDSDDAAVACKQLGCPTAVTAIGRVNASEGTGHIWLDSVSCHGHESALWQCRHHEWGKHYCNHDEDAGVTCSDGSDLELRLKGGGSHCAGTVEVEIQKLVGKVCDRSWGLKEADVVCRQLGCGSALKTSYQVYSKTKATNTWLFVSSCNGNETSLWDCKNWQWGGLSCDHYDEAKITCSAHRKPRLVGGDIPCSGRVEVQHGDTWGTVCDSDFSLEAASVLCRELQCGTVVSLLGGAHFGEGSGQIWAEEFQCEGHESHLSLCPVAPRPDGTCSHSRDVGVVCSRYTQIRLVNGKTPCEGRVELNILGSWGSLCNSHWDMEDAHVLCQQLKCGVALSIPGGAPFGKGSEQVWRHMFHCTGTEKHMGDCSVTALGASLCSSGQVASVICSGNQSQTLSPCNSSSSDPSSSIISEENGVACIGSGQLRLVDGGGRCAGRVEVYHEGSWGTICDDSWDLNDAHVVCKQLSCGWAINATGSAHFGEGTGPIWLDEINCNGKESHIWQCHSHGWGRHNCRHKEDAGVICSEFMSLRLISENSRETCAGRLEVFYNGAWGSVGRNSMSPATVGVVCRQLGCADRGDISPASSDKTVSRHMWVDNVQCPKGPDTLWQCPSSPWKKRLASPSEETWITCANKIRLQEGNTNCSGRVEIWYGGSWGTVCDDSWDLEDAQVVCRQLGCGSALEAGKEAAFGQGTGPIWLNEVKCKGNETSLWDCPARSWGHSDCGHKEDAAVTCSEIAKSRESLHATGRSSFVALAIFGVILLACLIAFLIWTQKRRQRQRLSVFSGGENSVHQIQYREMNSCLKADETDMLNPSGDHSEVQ
Procedure: Biparatopic and triparatopic antibody constructs in PBS (pH7.4) were diluted in a 3-fold serial dilutions from 150 nM down to 0.023 nM in FACS buffer (0.5% FBS, 0.5 mM EDTA in 1×PBS pH7.4). Biparatopic and triparatopic candidates were incubated with anti-FLAG-Biotin (Sigma, Cat. nr. F9291), for 30 min on ice with shaking. This mixture was added to pPAM WT cells and incubated for 60 min on ice with gentle shaking. Cells were washed 3×with 150 μl/well of FACS buffer and incubated with 50 μl/well of the secondary detection reagent Streptavidin R-P.E. conjugate antibody (Invitrogen, Cat. nr. SA10044) for 30 min on ice with shaking and protected from light. Cells were then washed 3× with 150 μl/well of FACS Buffer and resuspended in 50 μl/well of FACS buffer to be measured on a FACS machine (Attune™ N×T), and a total of 10000 cells were acquired per sample.

[2] = molecular target: T1, porcine CD163, membrane-bound form on …; experiment: cell-based or functional assay
[3] = molecular target: T1, porcine CD163, membrane-bound form on …; experiment: cell-based or functional assay; remark: listed apart in the source
[4] = molecular target: T2, porcine CD163 with deletion of SRCR domain 5, on pPAMΔ5 cells (porcine, UniProt Q2VL90 47-1115); experiment: P.E. FACS screening on pPAMΔ5 cells
T2 construct: also called pPAMΔ5 domain cells; pPAMΔ5 WT cells
T2 sequence: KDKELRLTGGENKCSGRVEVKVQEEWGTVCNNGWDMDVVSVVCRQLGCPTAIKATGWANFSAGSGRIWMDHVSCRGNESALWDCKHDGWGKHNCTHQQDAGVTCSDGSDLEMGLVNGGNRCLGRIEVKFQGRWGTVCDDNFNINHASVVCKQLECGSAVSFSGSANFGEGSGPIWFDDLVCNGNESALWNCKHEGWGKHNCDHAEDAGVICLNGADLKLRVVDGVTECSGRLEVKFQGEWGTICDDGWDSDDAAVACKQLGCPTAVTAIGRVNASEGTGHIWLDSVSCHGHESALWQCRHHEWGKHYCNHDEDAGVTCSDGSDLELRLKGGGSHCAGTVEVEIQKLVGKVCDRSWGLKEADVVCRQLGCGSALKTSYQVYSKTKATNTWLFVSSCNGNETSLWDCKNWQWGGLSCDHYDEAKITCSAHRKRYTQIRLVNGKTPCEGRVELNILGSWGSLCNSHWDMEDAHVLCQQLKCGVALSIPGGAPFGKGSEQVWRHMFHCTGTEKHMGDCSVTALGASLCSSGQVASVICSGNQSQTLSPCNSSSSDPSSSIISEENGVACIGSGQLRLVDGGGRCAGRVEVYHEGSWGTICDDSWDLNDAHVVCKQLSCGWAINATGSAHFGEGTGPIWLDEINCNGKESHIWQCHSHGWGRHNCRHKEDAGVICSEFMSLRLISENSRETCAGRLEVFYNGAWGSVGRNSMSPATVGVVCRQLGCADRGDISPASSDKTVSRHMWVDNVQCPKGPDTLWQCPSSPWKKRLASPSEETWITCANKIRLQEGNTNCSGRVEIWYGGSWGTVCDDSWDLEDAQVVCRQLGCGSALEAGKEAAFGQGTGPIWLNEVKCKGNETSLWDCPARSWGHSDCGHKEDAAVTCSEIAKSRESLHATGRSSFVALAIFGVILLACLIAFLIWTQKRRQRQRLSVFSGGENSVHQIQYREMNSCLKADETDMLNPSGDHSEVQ

[5] = molecular target: T1, porcine CD163, membrane-bound form on …; experiment: P.E. FACS screening on pPAM WT cells

B1: 03D03 + 17B11 + 03E11 2(G4S) triparatopic VHH construct (bispecific antibody)
chain: QLQLVESGGGLVQPGGSLRLSCAASGFTLDDYTIGWFRQAPGKEREGVSCINSITSNTYYADSVKGRFTISRDNAKNTVYLQMNSLTAEDTAIYYCAADSGLFSGSSCLKYRAMRFGSWGQGTQVTVSSGGGGSGGGGSQVQLVESGGGLVQAGGSLRLSCAASGRTFSSYAMGWFRQTPGKDREFVARIGWTGGTTIYADSVKGRFTISRDNAKNTVYLQMNSLKPEDTAVYYCAADQAGWRTAGVRNTYEYDYWGQGTQVTVSSGGGGSGGGGSQVQLQESGGGLVQVGSSLRLSCVTSGRTPSRYVMGWFRQAPGQEREFVAAISWSGRAPYADSVKGRFTISRDNAKNTVYLQMNSLKPEDTGVYYCAGGEGAIKWTTLDAYDYWGQGTQVTVSS
notes: Triparatopic; not shown: FLAG and His tags
[1]
  EC50: 13.6 nM

B2: 03E11 + 03D03 + 17B11 2(G4S) triparatopic VHH construct (bispecific antibody)
chain: QVQLQESGGGLVQVGSSLRLSCVTSGRTPSRYVMGWFRQAPGQEREFVAAISWSGRAPYADSVKGRFTISRDNAKNTVYLQMNSLKPEDTGVYYCAGGEGAIKWTTLDAYDYWGQGTQVTVSSGGGGSGGGGSQLQLVESGGGLVQPGGSLRLSCAASGFTLDDYTIGWFRQAPGKEREGVSCINSITSNTYYADSVKGRFTISRDNAKNTVYLQMNSLTAEDTAIYYCAADSGLFSGSSCLKYRAMRFGSWGQGTQVTVSSGGGGSGGGGSQVQLVESGGGLVQAGGSLRLSCAASGRTFSSYAMGWFRQTPGKDREFVARIGWTGGTTIYADSVKGRFTISRDNAKNTVYLQMNSLKPEDTAVYYCAADQAGWRTAGVRNTYEYDYWGQGTQVTVSS
notes: Triparatopic: three anti-porcine CD163 VHHs in one chain; also called Tri-2; Tri2; not shown: FLAG and His tags
[1]
  EC50: 9.1 nM
[2]
  IC50, PRRSV1 LT3 infection assay, high CD163 porcine serum: 2.96 nM
  IC50, PRRSV1 LT3 infection assay, low CD163 porcine serum: 2.81 nM
[3]
  IC50, PRRSV2 strain MN184 infection assay, 10% FBS: 2.13 nM
  IC50, PRRSV2 strain NA174 infection assay, high CD163 porcine serum: 5.01 nM
  IC50, PRRSV2 strain NA174 infection assay, low CD163 porcine serum: 4.99 nM

B3: 17B11 + 03E11 + 03D03 2(G4S) triparatopic VHH construct (bispecific antibody)
chain: QVQLVESGGGLVQAGGSLRLSCAASGRTFSSYAMGWFRQTPGKDREFVARIGWTGGTTIYADSVKGRFTISRDNAKNTVYLQMNSLKPEDTAVYYCAADQAGWRTAGVRNTYEYDYWGQGTQVTVSSGGGGSGGGGSQVQLQESGGGLVQVGSSLRLSCVTSGRTPSRYVMGWFRQAPGQEREFVAAISWSGRAPYADSVKGRFTISRDNAKNTVYLQMNSLKPEDTGVYYCAGGEGAIKWTTLDAYDYWGQGTQVTVSSGGGGSGGGGSQLQLVESGGGLVQPGGSLRLSCAASGFTLDDYTIGWFRQAPGKEREGVSCINSITSNTYYADSVKGRFTISRDNAKNTVYLQMNSLTAEDTAIYYCAADSGLFSGSSCLKYRAMRFGSWGQGTQVTVSS
notes: Triparatopic; also called Tri-10; Triparatopic-10; not shown: FLAG and His tags
[1]
  EC50: 11.6 nM
[2]
  IC50, PRRSV1 LT3 infection assay, high CD163 porcine serum: 4.02 nM
  IC50, PRRSV1 LT3 infection assay, low CD163 porcine serum: 3.41 nM
[3]
  IC50, PRRSV2 strain MN184 infection assay, 10% FBS: 2.84 nM
  IC50, PRRSV2 strain NA174 infection assay, high CD163 porcine serum: 7.6 nM
  IC50, PRRSV2 strain NA174 infection assay, low CD163 porcine serum: 3.94 nM

B4: 03D03 + 03E11 + 17B11 2(G4S) triparatopic VHH construct (bispecific antibody)
chain: QLQLVESGGGLVQPGGSLRLSCAASGFTLDDYTIGWFRQAPGKEREGVSCINSITSNTYYADSVKGRFTISRDNAKNTVYLQMNSLTAEDTAIYYCAADSGLFSGSSCLKYRAMRFGSWGQGTQVTVSSGGGGSGGGGSQVQLQESGGGLVQVGSSLRLSCVTSGRTPSRYVMGWFRQAPGQEREFVAAISWSGRAPYADSVKGRFTISRDNAKNTVYLQMNSLKPEDTGVYYCAGGEGAIKWTTLDAYDYWGQGTQVTVSSGGGGSGGGGSQVQLVESGGGLVQAGGSLRLSCAASGRTFSSYAMGWFRQTPGKDREFVARIGWTGGTTIYADSVKGRFTISRDNAKNTVYLQMNSLKPEDTAVYYCAADQAGWRTAGVRNTYEYDYWGQGTQVTVSS
notes: as for B1
[1]
  EC50: 3.8 nM

B5: 17B11 + 03D03 + 03E11 2(G4S) triparatopic VHH construct (bispecific antibody)
chain: QVQLVESGGGLVQAGGSLRLSCAASGRTFSSYAMGWFRQTPGKDREFVARIGWTGGTTIYADSVKGRFTISRDNAKNTVYLQMNSLKPEDTAVYYCAADQAGWRTAGVRNTYEYDYWGQGTQVTVSSGGGGSGGGGSQLQLVESGGGLVQPGGSLRLSCAASGFTLDDYTIGWFRQAPGKEREGVSCINSITSNTYYADSVKGRFTISRDNAKNTVYLQMNSLTAEDTAIYYCAADSGLFSGSSCLKYRAMRFGSWGQGTQVTVSSGGGGSGGGGSQVQLQESGGGLVQVGSSLRLSCVTSGRTPSRYVMGWFRQAPGQEREFVAAISWSGRAPYADSVKGRFTISRDNAKNTVYLQMNSLKPEDTGVYYCAGGEGAIKWTTLDAYDYWGQGTQVTVSS
notes: as for B1
[1]
  EC50: 8 nM

B6: Clone 19-H03E11 VHH antibody (VHH)
VHH: QVQLQESGGGLVQVGSSLRLSCVTSGRTPSRYVMGWFRQAPGQEREFVAAISWSGRAPYADSVKGRFTISRDNAKNTVYLQMNSLKPEDTGVYYCAGGEGAIKWTTLDAYDYWGQGTQVTVSS
notes: Tested as periplasmic extract in ELISA and FACS screening; also called VHH 019 (3E11)
[4]
  binding result: no binding
[5]
  binding result: binds

B7: Clone 17-H03D03 VHH antibody (VHH)
VHH: QLQLVESGGGLVQPGGSLRLSCAASGFTLDDYTIGWFRQAPGKEREGVSCINSITSNTYYADSVKGRFTISRDNAKNTVYLQMNSLTAEDTAIYYCAADSGLFSGSSCLKYRAMRFGSWGQGTQVTVSS
notes: Tested as periplasmic extract in ELISA and FACS screening; also called VHH 017 (3D03)
[4]
  binding result: no binding
[5]
  binding result: binds
